Experimental data taken from publication PMC13156308, “Proximal proteomics analysis reveals DNA polymerase δ subunit 3 is a new MCM2 binding partner and promotes parental histones inheritance in mammalian cells” (Cell Death and Differentiation, 2025).

Target: T1, GST-tagged MCM2 (human, UniProt P49736 1-904)
T1 construct: MCM2, amplified from cDNA of human MCF-7 cells, in pGEX-C5X; called MCM2-His in the three-protein pull-down; also called GST-MCM2; MCM2-His; source: E. coli BL21, purified (Ni-NTA); not shown: GST, N-terminal, kept; His tag, C-terminal, kept
T1 sequence (P49736 whole entry): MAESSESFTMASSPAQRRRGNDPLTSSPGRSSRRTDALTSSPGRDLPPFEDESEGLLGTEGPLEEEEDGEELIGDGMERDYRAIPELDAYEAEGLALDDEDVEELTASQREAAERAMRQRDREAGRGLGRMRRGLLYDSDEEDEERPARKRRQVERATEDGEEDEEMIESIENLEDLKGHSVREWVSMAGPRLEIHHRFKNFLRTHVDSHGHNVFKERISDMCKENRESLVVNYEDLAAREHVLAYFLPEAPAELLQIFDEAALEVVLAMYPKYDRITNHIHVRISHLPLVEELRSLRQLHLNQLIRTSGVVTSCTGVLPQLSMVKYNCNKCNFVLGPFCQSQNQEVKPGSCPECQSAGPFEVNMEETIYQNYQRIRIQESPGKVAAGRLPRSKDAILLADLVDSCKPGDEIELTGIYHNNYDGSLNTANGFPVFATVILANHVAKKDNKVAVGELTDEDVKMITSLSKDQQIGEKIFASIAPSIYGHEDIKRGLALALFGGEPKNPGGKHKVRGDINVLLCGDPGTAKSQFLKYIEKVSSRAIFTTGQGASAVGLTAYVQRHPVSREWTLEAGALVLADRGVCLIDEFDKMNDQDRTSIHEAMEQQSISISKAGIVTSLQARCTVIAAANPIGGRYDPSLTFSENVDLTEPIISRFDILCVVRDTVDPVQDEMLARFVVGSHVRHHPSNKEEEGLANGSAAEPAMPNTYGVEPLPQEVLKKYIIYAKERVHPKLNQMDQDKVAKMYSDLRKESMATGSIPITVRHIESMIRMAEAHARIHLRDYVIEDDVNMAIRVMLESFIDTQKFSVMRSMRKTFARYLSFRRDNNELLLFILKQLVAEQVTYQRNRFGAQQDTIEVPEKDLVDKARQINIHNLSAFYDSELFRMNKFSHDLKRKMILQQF
Test: BLI; MCM2 immobilised on Anti-GST biosensors, BLItz, 1x PBS and 0.02% Tween; analyte 0-50.0 nM
Settings: both partners purified

B1: full-length strep-tagged POLD3 (natural protein, human, UniProt Q15054 1-466, looked up)
chain: MADQLYLENIDEFVTDQNKIVTYKWLSYTLGVHVNQAKQMLYDYVERKRKENSGAQLHVTYLVSGSLIQNGHSCHKVAVVREDKLEAVKSKLAVTASIHVYSIQKAMLKDSGPLFNTDYDILKSNLQNCSKFSAIQCAAAVPRAPAESSSSSKKFEQSHLHMSSETQANNELTTNGHGPPASKQVSQQPKGIMGMFASKAAAKTQETNKETKTEAKEVTNASAAGNKAPGKGNMMSNFFGKAAMNKFKVNLDSEQAVKEEKIVEQPTVSVTEPKLATPAGLKKSSKKAEPVKVLQKEKKRGKRVALSDDETKETENMRKKRRRIKLPESDSSEDEVFPDSPGAYEAESPSPPPPPSPPLEPVPKTEPEPPSVKSSSGENKRKRKRVLKSKTYLDGEGCIVTEKVYESESCTDSEEELNMKTSSVHRPPAMTVKKEPREERKGPKKGTAALGKANRQVSITGFFQRK
notes: full-length human POLD3 gene, synthesised and codon-optimised, in pET28b; also called purified POLD3; Strep II-tagged POLD3; source: E. coli BL21, purified (Ni-NTA); not shown: twin-strep, C-terminal, kept
A Kd of 10.2 nM was found for B1 in this work.
